This note sets out measurements from patent US20250171534A1 (D2M BIOTHERAPEUTICS, published 2025).

Test [1] addresses T1, LILRB1-ECD-HIS (SinoBiological Cat #: 16014-H02H) (human, UniProt Q8NHL6 24-461).
T1 construct: Bought protein; also called monomeric antigen LILRB1-ECD-HIS; not shown: His tag
The experiment in a line: BLI (Gator), RB1-ECD-his.

For test [2], the target named is T2, LILRB2-ECD-HIS (SinoBiological Cat #: 14132-H02H) (human, UniProt Q8N423 22-460).
T2 construct: Bought protein; also called monomeric antigen LILRB2-ECD-HIS; not shown: His tag
The experiment in a line: BLI (Gator), RB2-ECD-his.

The target in test [3] is T1, LILRB1-ECD-HIS (SinoBiological Cat #: …). The experiment in a line: SPR (Carterra), LILRB1-ECD-his.
Test [4] addresses T2, LILRB2-ECD-HIS (SinoBiological Cat #: …). Kind of test: SPR (Carterra), LILRB2-ECD-his.
In test [5] the target is T3, human LILRB1 expressed on cells (human, UniProt Q8NHL6 24-650).
T3 construct: In 293T cells it was expressed from pCMV3-LILRB1-GFP; also called CHO-LILRB1; Jurkat-LILRB1
Kind of test: flow cytometry, Jurkat-LILRB1 cells.

Test [6] concerns the target T4, human LILRB2 expressed on cells (human, UniProt Q8N423 22-597).
T4 construct: In 293T cells it was expressed from pCMV3-LILRB2-GFP; also called CHO-LILRB2; Jurkat-LILRB2
The experiment in a line: flow cytometry, Jurkat-LILRB2 cells. On the technique in general: A flow cytometer gives signals particle by particle.

Test [7] has as its target T5, LILRA1 expressed on cells (human, UniProt O75019 17-489).
T5 construct: whole, on cells; GFP-tagged; also called human LILRA1; CHO-LILRA1
Kind of test: flow cytometry on CHO-LILRA1 cells, non-linear fit of the curves of FIG. 26E.

Test [8] deals with T3, human LILRB1 expressed on cells. The experiment in a line: flow cytometry on CHO-LILRB1 cells, non-linear fit of the curves of FIG. 26A.
The target of test [9] is T4, human LILRB2 expressed on cells. The experiment in a line: flow cytometry on CHO-LILRB2 cells, non-linear fit of the curves of FIG. 26B.
In test [10] the target is T3, human LILRB1 expressed on cells. Kind of test: flow cytometry, Jurkat-LILRB1 cells; blocked ligand: APC HLA-G trimer tetramer.
In test [11] the target is T4, human LILRB2 expressed on cells. The experiment in a line: flow cytometry, Jurkat-LILRB2 cells; blocked ligand: APC HLA-G monomer tetramer.
The target of test [12] is T3, human LILRB1 expressed on cells. Kind of test: flow cytometry on CHO-LILRB1 cells (CHO-RB1), titrated antibody, labelled anti-human Fc, gMFI.
The target in test [13] is T4, human LILRB2 expressed on cells. The experiment in a line: flow cytometry on CHO-LILRB2 cells (CHO-RB2), titrated antibody, labelled anti-human Fc, gMFI.
For test [14], the target named is T6, LILRB3 expressed on cells (human, UniProt O75022 24-631).
T6 construct: whole, on cells; Expressed with a GFP tag from the bought plasmid; also called human LILRB3; CHO-LILRB3
Kind of test: flow cytometry on CHO-LILRB3 cells (CHO-RB3), titrated antibody, labelled anti-human Fc, gMFI.

The target in test [15] is T5, LILRA1 expressed on cells. Kind of test: flow cytometry on CHO-LILRA1 cells (CHO-RA1), titrated antibody, labelled anti-human Fc, gMFI.
Test [16] has as its target T7, LILRA6 expressed on cells (human, UniProt Q6PI73 24-481).
T7 construct: whole, on cells; GFP-tagged; also called human LILRA6; CHO-LILRA6
The experiment in a line: flow cytometry on CHO-LILRA6 cells (CHO-RA6), titrated antibody, labelled anti-human Fc, gMFI.

Test [17] addresses T8, LILRB2-ECD-His (SinoBiological, Cat #: 14132-H08H-B) (Homo sapiens (Human), UniProt Q8N423 22-460, biotinylated (site not stated)). The experiment in a line: competition ELISA: plate coated with MAG, biotinylated LILRB2 pre-incubated with titrated antibody, streptavidin-HRP and TMB, OD450. Background: In an ELISA, binding on a coated surface is turned into a signal by an enzyme label.

Test [18] addresses T8, LILRB2-ECD-His (SinoBiological, Cat #: …). The experiment in a line: competition ELISA: plate coated with CD1C, biotinylated LILRB2 pre-incubated with titrated antibody, streptavidin-HRP and TMB, OD450.
Test [19] shares this target. The experiment in a line: competition ELISA: plate coated with CD1D, biotinylated LILRB2 pre-incubated with titrated antibody, streptavidin-HRP and TMB, OD450.
The target is the same in test [20]. The experiment in a line: competition ELISA: plate coated with SEMA4A, biotinylated LILRB2 pre-incubated with titrated antibody, streptavidin-HRP and TMB, OD450.
For test [21] the target is unchanged. Kind of test: competition ELISA: plate coated with ANGPTL2, biotinylated LILRB2 pre-incubated with titrated antibody, streptavidin-HRP and TMB, OD450.
For test [22] the target is unchanged. The experiment in a line: competition ELISA: plate coated with ANGPTL5, biotinylated LILRB2 pre-incubated with titrated antibody, streptavidin-HRP and TMB, OD450.
Test [23] concerns the target T3, human LILRB1 expressed on cells. Kind of test: flow cytometry on CHO-LILRB1 cells (CHO-RB1); D2M002-126 as stock or kept in PBS or human plasma at 37 °C for 1, 2 or 3 weeks; labelled anti-human Fc, gMFI.
Test [24] deals with T4, human LILRB2 expressed on cells. The experiment in a line: flow cytometry on CHO-LILRB2 cells (CHO-RB2); D2M002-126 as stock or kept in PBS or human plasma at 37 °C for 1, 2 or 3 weeks; labelled anti-human Fc, gMFI.
In test [25] the target is T3, human LILRB1 expressed on cells. Kind of test: flow cytometry, CHO-LILRB1 cells.
In test [26] the target is T4, human LILRB2 expressed on cells. The experiment in a line: flow cytometry, CHO-LILRB2 cells.
The target is the same in test [27]. Kind of test: flow cytometry, CHO-LILRB2 cells. The source holds these as a separate data set.
Test [28] addresses T1, LILRB1-ECD-HIS (SinoBiological Cat #: …). The experiment in a line: SPR (Carterra LSA), antibody captured, antigen injected.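 Note: kd obtained from kinetic analysis of antibody binding to the antigen, with association and dissociation phases fitted in the instrument software.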
Test [29] deals with T2, LILRB2-ECD-HIS (SinoBiological Cat #: …). The description is as above.

T8 sequence (Q8N423 other isoform, or with tags, fused parts or gaps H08H H08H): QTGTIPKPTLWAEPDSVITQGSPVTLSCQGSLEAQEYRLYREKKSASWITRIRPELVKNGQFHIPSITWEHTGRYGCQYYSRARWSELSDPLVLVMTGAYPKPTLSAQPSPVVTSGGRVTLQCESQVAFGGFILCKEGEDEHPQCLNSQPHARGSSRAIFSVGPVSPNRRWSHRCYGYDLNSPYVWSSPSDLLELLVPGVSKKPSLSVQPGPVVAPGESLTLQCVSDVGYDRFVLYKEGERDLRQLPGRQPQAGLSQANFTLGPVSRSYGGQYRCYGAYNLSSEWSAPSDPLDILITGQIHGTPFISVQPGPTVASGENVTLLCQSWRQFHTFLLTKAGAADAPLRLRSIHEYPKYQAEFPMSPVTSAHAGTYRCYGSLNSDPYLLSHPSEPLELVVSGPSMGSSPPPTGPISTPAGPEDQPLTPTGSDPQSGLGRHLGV
T2 sequence (Q8N423 other isoform, or with tags, fused parts or gaps H02H H02H): as the sequence (Q8N423 other isoform, or with tags, fused parts or gaps H08H H08H) above
T3 sequence (Q8NHL6 other isoform, or with tags, fused parts or gaps limits assumed): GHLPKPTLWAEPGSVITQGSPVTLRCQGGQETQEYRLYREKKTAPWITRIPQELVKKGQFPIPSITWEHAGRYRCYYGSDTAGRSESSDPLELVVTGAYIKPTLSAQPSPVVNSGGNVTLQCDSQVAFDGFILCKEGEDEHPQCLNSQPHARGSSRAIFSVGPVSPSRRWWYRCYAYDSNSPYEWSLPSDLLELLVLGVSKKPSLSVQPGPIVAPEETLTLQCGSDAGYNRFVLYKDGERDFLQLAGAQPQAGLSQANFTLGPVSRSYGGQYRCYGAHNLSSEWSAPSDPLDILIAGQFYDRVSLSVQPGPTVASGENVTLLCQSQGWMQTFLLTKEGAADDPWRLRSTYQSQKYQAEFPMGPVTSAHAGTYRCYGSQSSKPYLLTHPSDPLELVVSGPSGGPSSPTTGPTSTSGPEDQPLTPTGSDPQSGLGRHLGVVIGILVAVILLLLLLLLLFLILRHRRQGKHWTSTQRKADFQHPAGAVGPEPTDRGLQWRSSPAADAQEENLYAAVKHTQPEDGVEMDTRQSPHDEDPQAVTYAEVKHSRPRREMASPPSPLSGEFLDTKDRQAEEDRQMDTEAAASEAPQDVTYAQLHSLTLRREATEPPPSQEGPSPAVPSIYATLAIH
T5 sequence (O75019 17-489): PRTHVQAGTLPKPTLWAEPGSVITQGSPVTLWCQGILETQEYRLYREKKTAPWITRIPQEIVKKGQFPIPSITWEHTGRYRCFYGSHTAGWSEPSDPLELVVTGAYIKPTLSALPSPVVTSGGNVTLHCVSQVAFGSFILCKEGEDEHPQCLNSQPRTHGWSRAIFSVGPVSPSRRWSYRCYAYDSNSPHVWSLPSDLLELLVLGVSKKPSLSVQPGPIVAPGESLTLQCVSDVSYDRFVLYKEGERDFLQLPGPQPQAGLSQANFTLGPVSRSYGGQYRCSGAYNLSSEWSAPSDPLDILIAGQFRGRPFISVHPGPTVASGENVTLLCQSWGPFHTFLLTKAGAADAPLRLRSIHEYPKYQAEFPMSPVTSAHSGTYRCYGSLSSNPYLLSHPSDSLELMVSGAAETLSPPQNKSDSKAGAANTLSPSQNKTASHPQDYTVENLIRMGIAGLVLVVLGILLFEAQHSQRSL
T4 sequence (Q8N423 other isoform, or with tags, fused parts or gaps limits assumed): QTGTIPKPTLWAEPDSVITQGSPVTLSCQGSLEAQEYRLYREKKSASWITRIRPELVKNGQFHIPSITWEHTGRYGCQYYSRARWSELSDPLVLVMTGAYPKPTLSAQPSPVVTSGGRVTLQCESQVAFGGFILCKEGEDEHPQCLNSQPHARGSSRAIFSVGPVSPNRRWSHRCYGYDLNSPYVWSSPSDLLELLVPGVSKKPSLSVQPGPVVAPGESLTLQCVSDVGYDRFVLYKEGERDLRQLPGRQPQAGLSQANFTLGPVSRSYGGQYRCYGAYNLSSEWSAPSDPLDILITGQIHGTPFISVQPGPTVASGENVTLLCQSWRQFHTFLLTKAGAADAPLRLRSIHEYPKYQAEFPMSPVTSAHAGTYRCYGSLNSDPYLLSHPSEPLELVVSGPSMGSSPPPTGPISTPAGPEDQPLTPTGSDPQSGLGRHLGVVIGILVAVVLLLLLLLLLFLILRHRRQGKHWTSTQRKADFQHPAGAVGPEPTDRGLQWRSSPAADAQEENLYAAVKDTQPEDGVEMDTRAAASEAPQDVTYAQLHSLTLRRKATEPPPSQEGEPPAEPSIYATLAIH
T1 sequence (Q8NHL6 other isoform, or with tags, fused parts or gaps H02H H02H): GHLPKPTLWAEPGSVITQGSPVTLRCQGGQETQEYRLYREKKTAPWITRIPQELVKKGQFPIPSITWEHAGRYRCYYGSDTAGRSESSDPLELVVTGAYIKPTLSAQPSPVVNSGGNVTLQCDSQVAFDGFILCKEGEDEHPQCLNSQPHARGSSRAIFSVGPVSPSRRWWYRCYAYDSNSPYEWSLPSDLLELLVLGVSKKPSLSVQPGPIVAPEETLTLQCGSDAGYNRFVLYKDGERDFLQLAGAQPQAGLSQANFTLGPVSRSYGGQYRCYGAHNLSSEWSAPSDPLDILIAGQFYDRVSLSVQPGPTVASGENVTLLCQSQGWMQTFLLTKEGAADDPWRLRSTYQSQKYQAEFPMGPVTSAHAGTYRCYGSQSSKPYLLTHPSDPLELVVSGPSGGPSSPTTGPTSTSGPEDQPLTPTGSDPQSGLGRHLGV
T7 sequence (Q6PI73 24-481): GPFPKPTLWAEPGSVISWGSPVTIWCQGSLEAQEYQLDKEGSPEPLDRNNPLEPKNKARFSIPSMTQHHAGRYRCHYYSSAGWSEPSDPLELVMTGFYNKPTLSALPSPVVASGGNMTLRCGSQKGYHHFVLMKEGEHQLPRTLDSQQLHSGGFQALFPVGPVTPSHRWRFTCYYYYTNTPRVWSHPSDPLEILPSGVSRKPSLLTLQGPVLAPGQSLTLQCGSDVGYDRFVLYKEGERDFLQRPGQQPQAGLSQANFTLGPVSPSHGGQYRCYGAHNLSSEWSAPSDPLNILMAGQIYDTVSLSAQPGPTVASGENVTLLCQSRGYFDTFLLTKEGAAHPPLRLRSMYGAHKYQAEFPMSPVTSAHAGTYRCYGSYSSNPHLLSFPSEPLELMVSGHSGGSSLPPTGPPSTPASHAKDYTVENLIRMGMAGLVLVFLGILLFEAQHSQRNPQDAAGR

B1: D2M002-126 (antibody, V domains shown)
VH: QVQLVQSGAEVKKPGASVKVSCKASGYTFTSYWIEWVRQAPGQGLEWIGEILPGDESTNYNAKFKGRVTFTTDTSTSTAYMELRSLRSDDTAVYYCARSGAGGYDSGAFAYWGQGTLVTVSS
VL: AIQLTQSPSSLSASVGDRVTITCRASESVDTYGNSFMHWYQQKPGKAPKLLVYRTSNLESGVPSRFSGSGSGTDFTLTISSLQPEDFATYYCQQSNEDPWTFGGGTKVEIK
notes: Humanized and optimized variant of D2M002-026
By Kd is commonly meant the equilibrium constant for the complex coming apart. The koff is the rate constant with which the complex falls apart. Low readings indicate slow dissociation, high ones fast dissociation. The term kon denotes the second-order rate constant of association. A low value points to slow association. One may read the EC50 as the concentration that produces a half-maximal response. Read a high EC50 as lower potency in that assay. Broadly, the IC50 is the concentration that gives 50% inhibition. Low values mean higher potency, high ones lower potency. A word on the EC50 (read off the curve): it is the concentration giving half of the maximal effect. A low value points to greater potency. For the molecule B1, the Kd amounted to 0.366 nM in test [1], 0.0482 nM in [2], 0.515 nM in test [3] and 0.119 nM in [4]. Also, the koff in test [3] came to 2.17e-05 s⁻¹; in test [4], 5.89e-05 s⁻¹. Also, the kon worked out at 42100 M⁻¹ s⁻¹ in [3] and 496000 M⁻¹ s⁻¹ in [4]. Moreover, the half-maximal effective concentration (EC50) is 1.45 µg/mL in test [5]; 0.081 µg/mL in test [6]; 0.102 µg/mL in test [7]; 0.388 µg/mL in [8]; 0.206 µg/mL in test [9]. The MaxMFI in [7] was 27500; in test [8], 113000; in [9], 33600. Also, the concentration for half-maximal inhibition (IC50) in test [10] worked out at 0.304 µg/mL; in [11], 0.015 µg/mL. Moreover, the half-maximal effective concentration (EC50 (read off the curve)) in test [12] is about 0.4 µg/mL; in test [13], about 0.2 µg/mL; in [15], about 0.1 µg/mL; in test [23], about 0.3 µg/mL; in test [24], about 0.1 µg/mL. In addition, the binding result in test [14] and in test [16] was “no binding (tested: about 30 µg/mL (log10 about 1.5))” throughout. In addition, the “IC50 (read off the curve)” value was about 1 µg/mL in [17]; about 2 µg/mL in test [18]; about 2 µg/mL in test [19]; about 1 µg/mL in [20]; about 1 µg/mL in [21]; about 1 µg/mL in test [22].

B2: D2M002-044 (antibody, human IgG1, V domains shown)
VH: EVQLQQSGAELVRPGALVKLSCKGSGFNIKDYYMHWVRQRPEQGLEWIGWIDPENGNTVYAPKFQGKASITSDTSSNIAYLQFSSLTSEDTAVYYCARSRDHGAMDYWGQGTSVTVSS
VL: DVQITQSPAIMSASPGEKVTLTCSASSSVSSSNLYWYQQKPGSSPKLWIYSTSNLASGVPARFSGSGFGTSYALTISSMEAEDAASYFCHQWSSYPYTFGGGTKLEIK
notes: Hit; also called clone #44
With B2, in test [25], the binding result is reported as “no binding (tested: 5 µg/mL)”. In addition, in test [26], the “EC50 (read off the curve)” value is about 0.06 µg/mL. In test [27], the concentration giving a half-maximal response (EC50) was determined as 0.061 µg/mL. Besides, the “gMFI (max)” value in [27] came out at 22900. Also, the Kd in test [28] was 1000 nM; in test [29], 4.85 nM.
